Results: patent US20140294878A1
Substitutions are numbered along the chain they refer to.

B1: mixture of the single wt allergens (wt Bet v 1 and wt Mal d 1) (protein)
chain 1: HHHHHHGVFNYETETTSVIPAARLFKAFILDGDNLFPKVAPQAISSVENIEGNGGPGTIKKISFPEGFPFKYVKDRVDEVDHTNFKYNYSVIEGGPIGDTLEKISNEIKIVATPDGGSILKINNKYHTKGDHEVKAEQIKASKEMGETLLRAVESYLLAHSDAYN
chain 2: HHHHHHGVYTFENEFTSEIPPSRLFKAFVLDADNLIPKIAPQAIKQAEILEGDGGPGTIKKITFGEGSQYGYVKHKIDSVDEANYSYAYTLIEGDALTDTIEKVSYETKLVASGSGSIIKSISHYHTKGDVEIKEEHVKAGKEKAHGLFKLIESYLKGHPDAYN
B2: mixture of the two mutagenised allergens (mut Bet v 1-SEQ ID NO:6 and mut Mal d 1-SEQ ID NO:2) (protein)
chain 1: B1 chain 1 with K60A, K121A, K129A
chain 2: B1 chain 2 with D31A, N84A
B3: wild-type Bet v 1-Mal d 1 hybrid molecule (SEQ ID NO: 3) (protein)
chain: HHHHHHGVFNYETETTSVIPAARLFKAFILDGDNLFPKVAPQAISSVENIEGNGGPGTIKKISFPEGFPFKYVKDRVDEVDHTNFKYNYSVIEGGPIGDTLEKISNEIKIVATPDGGSILKINNKYHTKGDHEVKAEQIKASKEMGETLLRAVESYLLAHSDAYNEFGVYTFENEFTSEIPPSRLFKAFVLDADNLIPKIAPQAIKQAEILEGDGGPGTIKKITFGEGSQYGYVKHKIDSVDEANYSYAYTLIEGDALTDTIEKVSYETKLVASGSGSIIKSISHYHTKGDVEIKEEHVKAGKEKAHGLFKLIESYLKGHPDAYN
B4: mutant Bet v 1-Mal d 1 hybrid molecule (SEQ ID NO: 4) (protein)
chain: B3 chain with K60A, K121A, K129A, D192A, N245A
B5: wild-type Mal d 1, major allergen of Malus domestica (SEQ ID NO: 1) (protein)
chain: B1 chain 2
B6: hypoallergenic Mal d 1 variant with two substitutions, positions 25 and 78 (SEQ ID NO: 2) (protein)
chain: B1 chain 2 with D31A, N84A
B7: Mal d 1 variant with the single substitution Asn 78 in Ala (SEQ ID NO: 11) (protein)
chain: B1 chain 2 with N84A
B8: wild-type Bet v 1, major allergen of Betula verrucosa pollen (SEQ ID NO: 5) (protein)
chain: B1 chain 1

Target: specific IgE contained in the sera of 7 patients allergic to birch and apple
Assay: ELISA inhibition, 7 sera pre-incubated with 1.25 µg/ml inhibitor; competitor: wt Mal d 1 adsorbed on wells

Going from B1 to B2, the mean % inhibition of Mal d 1-IgE binding (7 sera) falls from 82.8% to 51.6%.

First: B3
Second: B4
The mean % inhibition of Mal d 1-IgE binding (7 sera) of the first is higher: 74.6% for the first, 63.6% for the second.

Target: IgEs from a pool of sera from patients allergic to birch pollen and apple
Assay: ELISA inhibition, serum pool pre-treated with 0.3125 µg/ml inhibitor; competitor: wt Mal d 1 adsorbed on wells

For B5, the % inhibition of wt Mal d 1-IgE binding was 93.3%.

Target: IgEs from a pool of sera from patients allergic to birch pollen and apple
Assay: ELISA inhibition, serum pool pre-incubated with 0.625 µg/ml inhibitor; competitor: wt Bet v 1 adsorbed on wells

Going from B6 to B5, the % inhibition of wt Bet v 1-IgE binding rises from 4.2% to 46%.

Target: IgE of patient serum 2
Assay: ELISA inhibition, serum 2 pre-incubated with 1.25 µg/ml inhibitor; competitor: wt Bet v 1 adsorbed on wells

Going from B1 to B2, the % inhibition of Bet v 1-IgE binding falls from 96.6% to 72.8%.

First: B3
Second: B4
The % inhibition of Bet v 1-IgE binding of the first is higher: 85.1% for the first, 36.4% for the second.

Target: IgE of patient serum 7
Assay: ELISA inhibition, serum 7 pre-incubated with 1.25 µg/ml inhibitor; competitor: wt Bet v 1 adsorbed on wells

First: B1
Second: B2
The % inhibition of Bet v 1-IgE binding of the first is higher: 36.8% for the first, 20.6% for the second.

Compared with B3, B4 is higher in % inhibition of Bet v 1-IgE binding: 15.9% for the first, 18.2% for the second.

Target: IgE of patient serum 5
Assay: ELISA inhibition, serum 5 pre-incubated with 1.25 µg/ml inhibitor; competitor: wt Bet v 1 adsorbed on wells

First: B1
Second: B2
The % inhibition of Bet v 1-IgE binding of the first is higher: 91.6% for the first, 41% for the second.

Going from B3 to B4, the % inhibition of Bet v 1-IgE binding falls from 50.8% to 7.8%.

Target: IgE of patient serum 1
Assay: ELISA inhibition, serum 1 pre-incubated with 1.25 µg/ml inhibitor; competitor: wt Mal d 1 adsorbed on wells

Compared with B1, B2 is lower in % inhibition of Mal d 1-IgE binding: 95.5% for the first, 76.7% for the second.

First: B3
Second: B4
The % inhibition of Mal d 1-IgE binding of the first is higher: 92% for the first, 91% for the second.

Target: IgEs from a pool of sera from patients allergic to birch pollen and apple
Assay: ELISA inhibition, serum pool pre-incubated with 0.3125 µg/ml inhibitor; competitor: wt Mal d 1 adsorbed on wells

B6 was tested, and the % inhibition of wt Mal d 1-IgE binding was 25.4%.

With B7 the % inhibition of SEQ ID NO:1-IgE binding was 19.7%.

Target: IgE of patient serum 2
Assay: ELISA inhibition, serum 2 pre-incubated with 1.25 µg/ml inhibitor; competitor: wt Mal d 1 adsorbed on wells

Compared with B1, B2 is lower in % inhibition of Mal d 1-IgE binding: 93.9% for the first, 42.4% for the second.

First: B3
Second: B4
The % inhibition of Mal d 1-IgE binding of the first is higher: 84.5% for the first, 41.9% for the second.

Target: IgEs from a pool of sera from patients allergic to birch pollen and apple
Assay: ELISA inhibition, serum pool pre-treated with 0.625 µg/ml inhibitor; competitor: wt Bet v 1 adsorbed on wells

Compared with B7, B8 is higher in % inhibition of wt Bet v 1-IgE binding: 32.1% for the first, 94% for the second.

Target: IgE of patient serum 6
Assay: ELISA inhibition, serum 6 pre-incubated with 1.25 µg/ml inhibitor; competitor: wt Mal d 1 adsorbed on wells

First: B1
Second: B2
The % inhibition of Mal d 1-IgE binding of the first is higher: 73.7% for the first, 53.9% for the second.

First: B3
Second: B4
The % inhibition of Mal d 1-IgE binding of the first is lower: 70.5% for the first, 70.8% for the second.

Target: IgE of patient serum 7
Assay: ELISA inhibition, serum 7 pre-incubated with 1.25 µg/ml inhibitor; competitor: wt Mal d 1 adsorbed on wells

Compared with B1, B2 is lower in % inhibition of Mal d 1-IgE binding: 70.3% for the first, 65.6% for the second.

Going from B3 to B4, the % inhibition of Mal d 1-IgE binding falls from 60.6% to 60.4%.

Target: IgE of patient serum 3
Assay: ELISA inhibition, serum 3 pre-incubated with 1.25 µg/ml inhibitor; competitor: wt Mal d 1 adsorbed on wells

Compared with B1, B2 is lower in % inhibition of Mal d 1-IgE binding: 80.5% for the first, 49% for the second.

First: B3
Second: B4
The % inhibition of Mal d 1-IgE binding of the first is higher: 75.1% for the first, 66.3% for the second.

Target: IgE of patient serum 3
Assay: ELISA inhibition, serum 3 pre-incubated with 1.25 µg/ml inhibitor; competitor: wt Bet v 1 adsorbed on wells

Compared with B1, B2 is lower in % inhibition of Bet v 1-IgE binding: 90.9% for the first, 52.3% for the second.

Going from B3 to B4, the % inhibition of Bet v 1-IgE binding falls from 76.2% to 35.9%.

Target: IgE of patient serum 6
Assay: ELISA inhibition, serum 6 pre-incubated with 1.25 µg/ml inhibitor; competitor: wt Bet v 1 adsorbed on wells

Going from B1 to B2, the % inhibition of Bet v 1-IgE binding falls from 65.2% to 41.8%.

Going from B3 to B4, the % inhibition of Bet v 1-IgE binding falls from 56.6% to 0%.

Target: IgE of patient serum 5
Assay: ELISA inhibition, serum 5 pre-incubated with 1.25 µg/ml inhibitor; competitor: wt Mal d 1 adsorbed on wells

First: B1
Second: B2
The % inhibition of Mal d 1-IgE binding of the first is higher: 88.3% for the first, 27.6% for the second.

Going from B3 to B4, the % inhibition of Mal d 1-IgE binding falls from 68% to 50.8%.

Target: specific IgE contained in the sera of 7 patients allergic to birch and apple
Assay: ELISA inhibition, 7 sera pre-incubated with 1.25 µg/ml inhibitor; competitor: wt Bet v 1 adsorbed on wells

Compared with B1, B2 is lower in mean % inhibition of Bet v 1-IgE binding (7 sera): 79.9% for the first, 53.3% for the second.

First: B3
Second: B4
The mean % inhibition of Bet v 1-IgE binding (7 sera) of the first is higher: 63.3% for the first, 32.1% for the second.

Target: IgE of patient serum 4
Assay: ELISA inhibition, serum 4 pre-incubated with 1.25 µg/ml inhibitor; competitor: wt Bet v 1 adsorbed on wells

Going from B1 to B2, the % inhibition of Bet v 1-IgE binding falls from 81.2% to 56.5%.

Compared with B3, B4 is lower in % inhibition of Bet v 1-IgE binding: 61.7% for the first, 35.9% for the second.

Target: IgE of patient serum 4
Assay: ELISA inhibition, serum 4 pre-incubated with 1.25 µg/ml inhibitor; competitor: wt Mal d 1 adsorbed on wells

Compared with B1, B2 is lower in % inhibition of Mal d 1-IgE binding: 77.3% for the first, 46% for the second.

Compared with B3, B4 is lower in % inhibition of Mal d 1-IgE binding: 71.3% for the first, 64.3% for the second.

Target: IgE of patient serum 1
Assay: ELISA inhibition, serum 1 pre-incubated with 1.25 µg/ml inhibitor; competitor: wt Bet v 1 adsorbed on wells

Going from B1 to B2, the % inhibition of Bet v 1-IgE binding falls from 97.1% to 88.4%.

Compared with B3, B4 is lower in % inhibition of Bet v 1-IgE binding: 93.6% for the first, 90.2% for the second.
